Data as given in patent publication US20240116985A1 (published 2024).
Starred links: 1 amine or outer side, 2 acyl side, 3 side chain; linkers in the order of their positions; H or OH if unused. Positions of bridges follow the written chain, without caps; N, C: chain ends. Non-standard residues stand in square brackets, D forms with d. Primed or numbered codes have the meaning given here. PyrS2″ = (S)-3-amino-1-((pent-4-en-1-yloxy)carbonyl)pyrrolidine-3-carboxylic acid (stapling residue), C=CCCCOC(=O)N1CC[C@@](N[*:1])(C(=O)[*:2])C1; B5(4) = 2,2-bis(4-pentenyl)glycine = 2-amino-2-(pent-4-en-1-yl)hept-6-enoic acid (stitching residue), C=CCCCC(CCCC=C)(N[*:1])C(=O)[*:2]; B5(3) = 2,2-bis(4-pentenyl)glycine (stitching residue), C=CCCCC(CCCC=C)(N[*:1])C(=O)[*:2]; Phe(3-COOH) = N[C@@H](Cc1cccc(C(=O)O)c1)C(=O)O; 2F3MeF = Cc1cccc(C[C@H](N[*:1])C(=O)[*:2])c1F; Bta = N[C@@H](Cc1csc2ccccc12)C(=O)O; Lys(iPr) = CC(C)NCCCC[C@H](N)C(=O)O; αAllylPro = C=CC[C@@]1(C(=O)O)CCCN1; tBuAla = CC(C)(C)C[C@H](N)C(=O)O; 3Thi = N[C@@H](Cc1ccsc1)C(=O)O; PyrS2(4) = not defined here

Tests used:
Assay in all cases: cell-based or functional assay
[1] = target: T1, B-cat-Halo (beta-catenin HaloTag construct expressed in HEK293 cells) (UniProt P35222 1-781)
T1 sequence (looked up): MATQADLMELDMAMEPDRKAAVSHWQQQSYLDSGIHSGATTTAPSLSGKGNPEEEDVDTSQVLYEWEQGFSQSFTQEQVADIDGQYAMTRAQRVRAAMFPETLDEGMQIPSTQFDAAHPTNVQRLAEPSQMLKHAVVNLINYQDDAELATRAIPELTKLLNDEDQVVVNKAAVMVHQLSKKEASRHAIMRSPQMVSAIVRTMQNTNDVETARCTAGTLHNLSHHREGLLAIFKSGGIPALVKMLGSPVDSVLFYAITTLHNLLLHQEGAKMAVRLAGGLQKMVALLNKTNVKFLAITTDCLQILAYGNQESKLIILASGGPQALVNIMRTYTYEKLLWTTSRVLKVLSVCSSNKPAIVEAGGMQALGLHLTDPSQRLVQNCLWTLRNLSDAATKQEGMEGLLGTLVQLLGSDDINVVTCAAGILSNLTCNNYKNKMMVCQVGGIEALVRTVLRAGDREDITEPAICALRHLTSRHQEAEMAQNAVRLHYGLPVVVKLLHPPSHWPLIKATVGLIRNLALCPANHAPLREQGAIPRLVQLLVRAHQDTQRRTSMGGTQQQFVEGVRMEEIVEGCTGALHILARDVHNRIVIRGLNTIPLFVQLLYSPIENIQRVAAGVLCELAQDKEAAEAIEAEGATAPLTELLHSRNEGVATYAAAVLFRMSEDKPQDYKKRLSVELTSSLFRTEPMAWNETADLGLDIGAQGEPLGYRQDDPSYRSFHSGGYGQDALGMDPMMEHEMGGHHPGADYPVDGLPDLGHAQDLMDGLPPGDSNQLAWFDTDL

[2] = target: T2, beta-catenin in DLD1 TCF/LEF luciferase reporter cells (UniProt P35222 2-781)
T2 sequence (looked up): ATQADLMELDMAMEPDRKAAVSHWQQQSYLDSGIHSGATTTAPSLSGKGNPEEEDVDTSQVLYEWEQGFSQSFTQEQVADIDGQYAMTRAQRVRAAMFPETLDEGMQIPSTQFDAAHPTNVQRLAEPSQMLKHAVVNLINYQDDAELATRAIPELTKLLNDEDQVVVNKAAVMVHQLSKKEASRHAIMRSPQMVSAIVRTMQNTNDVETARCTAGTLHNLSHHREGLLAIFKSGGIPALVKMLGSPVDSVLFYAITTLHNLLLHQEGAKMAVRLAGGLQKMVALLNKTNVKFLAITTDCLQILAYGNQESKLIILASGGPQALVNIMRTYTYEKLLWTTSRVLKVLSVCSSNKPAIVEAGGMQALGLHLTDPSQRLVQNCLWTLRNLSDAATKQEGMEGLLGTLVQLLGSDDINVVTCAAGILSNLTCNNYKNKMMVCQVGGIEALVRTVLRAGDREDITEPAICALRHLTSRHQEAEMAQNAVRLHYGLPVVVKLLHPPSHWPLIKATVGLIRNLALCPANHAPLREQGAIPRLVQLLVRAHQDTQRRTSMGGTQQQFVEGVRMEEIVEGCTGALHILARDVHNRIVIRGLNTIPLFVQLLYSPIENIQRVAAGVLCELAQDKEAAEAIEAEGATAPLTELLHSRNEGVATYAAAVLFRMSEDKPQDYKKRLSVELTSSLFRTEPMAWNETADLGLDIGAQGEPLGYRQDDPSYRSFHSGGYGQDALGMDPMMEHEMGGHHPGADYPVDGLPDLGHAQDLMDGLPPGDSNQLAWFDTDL

[3] = target: T3, B-cat-Halo (UniProt P35222 1-781)
T3 sequence (looked up): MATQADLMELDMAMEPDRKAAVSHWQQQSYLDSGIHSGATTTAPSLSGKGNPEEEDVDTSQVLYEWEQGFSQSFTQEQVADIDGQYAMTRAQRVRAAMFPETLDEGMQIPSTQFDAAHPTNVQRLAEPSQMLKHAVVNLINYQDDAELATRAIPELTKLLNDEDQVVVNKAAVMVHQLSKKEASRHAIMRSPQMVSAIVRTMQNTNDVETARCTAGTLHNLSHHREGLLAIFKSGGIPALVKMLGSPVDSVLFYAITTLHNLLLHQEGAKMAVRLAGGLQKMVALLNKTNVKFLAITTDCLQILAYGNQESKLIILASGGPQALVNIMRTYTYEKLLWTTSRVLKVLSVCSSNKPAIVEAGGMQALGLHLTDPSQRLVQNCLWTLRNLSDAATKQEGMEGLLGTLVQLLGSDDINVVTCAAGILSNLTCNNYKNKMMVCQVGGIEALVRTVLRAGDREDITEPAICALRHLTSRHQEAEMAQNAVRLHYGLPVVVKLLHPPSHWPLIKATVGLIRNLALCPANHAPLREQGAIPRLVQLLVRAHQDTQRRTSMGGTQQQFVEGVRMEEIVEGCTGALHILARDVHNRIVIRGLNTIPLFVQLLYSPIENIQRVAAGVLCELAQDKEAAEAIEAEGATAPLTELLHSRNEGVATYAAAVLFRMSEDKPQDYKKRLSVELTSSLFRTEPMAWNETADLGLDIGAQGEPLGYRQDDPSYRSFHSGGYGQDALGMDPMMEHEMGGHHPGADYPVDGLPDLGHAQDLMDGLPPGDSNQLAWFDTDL

[4] = target: T4, beta-catenin in DLD1 TCF/LEF luciferase reporter cells (UniProt P35222 2-781); remark: listed apart in the source
T4 sequence (looked up): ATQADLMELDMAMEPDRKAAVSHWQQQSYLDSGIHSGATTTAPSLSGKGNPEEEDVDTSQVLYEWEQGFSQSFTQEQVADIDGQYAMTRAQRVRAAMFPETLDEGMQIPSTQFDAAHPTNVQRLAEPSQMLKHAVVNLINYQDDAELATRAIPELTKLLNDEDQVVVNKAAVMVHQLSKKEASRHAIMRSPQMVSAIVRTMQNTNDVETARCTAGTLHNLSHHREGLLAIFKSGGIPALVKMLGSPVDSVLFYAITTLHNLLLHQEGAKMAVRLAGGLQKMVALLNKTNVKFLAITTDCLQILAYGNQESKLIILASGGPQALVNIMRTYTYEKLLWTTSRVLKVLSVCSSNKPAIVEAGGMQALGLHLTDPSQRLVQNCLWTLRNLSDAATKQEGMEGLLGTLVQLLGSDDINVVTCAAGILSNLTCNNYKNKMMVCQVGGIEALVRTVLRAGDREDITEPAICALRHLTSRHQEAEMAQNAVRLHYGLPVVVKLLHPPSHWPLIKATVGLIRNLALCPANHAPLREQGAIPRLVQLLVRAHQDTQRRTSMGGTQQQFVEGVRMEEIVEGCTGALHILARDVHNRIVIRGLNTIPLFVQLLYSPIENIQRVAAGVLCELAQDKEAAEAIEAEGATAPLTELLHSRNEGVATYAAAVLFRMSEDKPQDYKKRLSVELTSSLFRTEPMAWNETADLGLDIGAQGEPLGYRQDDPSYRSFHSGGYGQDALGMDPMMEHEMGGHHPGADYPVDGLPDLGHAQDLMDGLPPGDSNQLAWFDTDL

[5] = target: T5, B-cat-Halo (Homo sapiens (Human), UniProt P35222 1-781)
T5 sequence: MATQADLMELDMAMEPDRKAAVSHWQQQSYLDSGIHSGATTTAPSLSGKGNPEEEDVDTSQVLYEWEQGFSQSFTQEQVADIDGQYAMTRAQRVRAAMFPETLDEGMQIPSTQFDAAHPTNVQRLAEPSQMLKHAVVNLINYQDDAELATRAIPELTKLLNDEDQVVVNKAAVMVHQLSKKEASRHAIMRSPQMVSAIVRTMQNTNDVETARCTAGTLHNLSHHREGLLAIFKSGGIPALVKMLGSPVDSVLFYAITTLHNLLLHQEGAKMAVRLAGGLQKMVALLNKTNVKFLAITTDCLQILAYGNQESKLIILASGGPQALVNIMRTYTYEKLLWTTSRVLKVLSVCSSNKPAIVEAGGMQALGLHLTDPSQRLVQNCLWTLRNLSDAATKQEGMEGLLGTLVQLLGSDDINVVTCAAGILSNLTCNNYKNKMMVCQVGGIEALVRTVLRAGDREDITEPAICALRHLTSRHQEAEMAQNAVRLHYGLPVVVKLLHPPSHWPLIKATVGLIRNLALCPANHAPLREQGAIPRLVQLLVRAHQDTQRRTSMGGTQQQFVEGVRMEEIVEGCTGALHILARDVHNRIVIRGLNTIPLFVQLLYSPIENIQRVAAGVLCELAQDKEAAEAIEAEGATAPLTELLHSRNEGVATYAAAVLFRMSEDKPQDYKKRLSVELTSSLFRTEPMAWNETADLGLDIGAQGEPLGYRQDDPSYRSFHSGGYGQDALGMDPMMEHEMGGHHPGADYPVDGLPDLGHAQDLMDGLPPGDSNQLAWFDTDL

[6] = target: T6, beta-catenin in DLD1 TCF/LEF luciferase reporter cells (Homo sapiens (Human), UniProt P35222 1-781)
T6 sequence: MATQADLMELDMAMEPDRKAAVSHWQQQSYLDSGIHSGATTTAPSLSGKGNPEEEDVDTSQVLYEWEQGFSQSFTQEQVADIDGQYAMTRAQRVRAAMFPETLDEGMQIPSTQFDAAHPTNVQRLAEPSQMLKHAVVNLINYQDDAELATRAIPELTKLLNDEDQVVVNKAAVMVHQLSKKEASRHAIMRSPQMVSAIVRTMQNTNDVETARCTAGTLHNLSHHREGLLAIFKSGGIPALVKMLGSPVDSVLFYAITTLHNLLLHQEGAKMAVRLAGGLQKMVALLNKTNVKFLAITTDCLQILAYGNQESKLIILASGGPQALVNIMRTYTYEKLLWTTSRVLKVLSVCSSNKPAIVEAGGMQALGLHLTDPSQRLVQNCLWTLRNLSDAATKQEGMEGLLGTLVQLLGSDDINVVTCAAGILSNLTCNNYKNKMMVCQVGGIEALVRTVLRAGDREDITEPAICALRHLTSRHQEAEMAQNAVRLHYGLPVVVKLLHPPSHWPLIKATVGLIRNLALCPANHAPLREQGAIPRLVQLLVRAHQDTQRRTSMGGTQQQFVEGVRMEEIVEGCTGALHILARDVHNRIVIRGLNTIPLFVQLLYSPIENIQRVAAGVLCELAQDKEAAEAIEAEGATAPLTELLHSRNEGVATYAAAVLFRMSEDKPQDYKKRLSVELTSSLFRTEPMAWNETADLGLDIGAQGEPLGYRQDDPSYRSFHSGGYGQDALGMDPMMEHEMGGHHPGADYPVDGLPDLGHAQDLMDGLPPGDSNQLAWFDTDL

Binder: Ac-[αAllylPro]D[tBuAla][B5(4)]D[Phe(3-COOH)]QAFL[PyrS2″][2F3MeF][Bta]A-NH2 (staple 1-4, 4-11) [I-2057]
- NanoBRET Abs IC50 [1]: 1500 nM
- DLD1 4% Abs IC50 [2]: 4000 nM

B1: I-1616 (peptide)
peptide: Ac-[αAllylPro]D[tBuAla][B5(3)]D[Phe(3-COOH)]AAFL[PyrS2(4)][2F3MeF][Bta][Lys(iPr)]-NH2
modifications: staple 1-4, 4-11; not fully specified; printed as Ac-PL3-Asp-Npg-B5-Asp-3COOHF-Ala-Ala-Phe-Leu-PyrS2-2F3MeF-BztA-iPrLys-NH2; reading uncertain
- NanoBRET Abs IC50 [3]: 4500 nM
- DLD1 4% Abs IC50 [4]: 2800 nM

Binder: Ac-[αAllylPro]D[tBuAla][B5(3)]D[Phe(3-COOH)]AAFL[PyrS2(4)][3Thi][Bta]NAA[dA]-NH2 (staple 1-4, 4-11; reading uncertain) [I-2047]
- NanoBRET Abs IC50 [5]: 2600 nM
- DLD1 4% Abs IC50 [6]: 1300 nM
